Measured values reported in PMC7892824 (2021).
Bridges are numbered along the chain shown (N, C = ends). [ ]: non-standard residue; d: D form. The star is where a group is joined. FITC = O=C1OC2(c3ccc(O)cc3Oc3cc(O)ccc32)c2ccc(NC(=S)*)cc21; S5 = C=CCCC[C@](C)(N)C(=O)O; Ahx = NCCCCCC(=O)O

Key:
[1] = target: T1, Human full-length (1–192) wild-type BAX (human, UniProt Q07812 1-192); test: FP; 0 uM EO
[2] = target: T1, Human full-length (1–192) wild-type BAX; test: FP; 1 uM EO (eltrombopag)
[3] = target: T1, Human full-length (1–192) wild-type BAX; test: FP; 0.5 uM EO (eltrombopag)

T1 sequence (Q07812 whole entry): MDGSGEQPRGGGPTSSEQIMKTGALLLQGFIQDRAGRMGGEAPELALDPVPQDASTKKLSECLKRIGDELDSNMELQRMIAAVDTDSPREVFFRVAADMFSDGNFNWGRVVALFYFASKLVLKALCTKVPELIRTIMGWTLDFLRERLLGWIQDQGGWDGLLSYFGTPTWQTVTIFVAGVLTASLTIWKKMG

Kd [1]: 110 nM | Kd [2]: > 2000 nM | Kd [3]: 613 nM
B1: FITC-BIM–SAHB, fluorescently-labeled hydrocarbon-stapled BIM–BH3 peptide (peptide)
chain: {FITC-Ahx}-EIWIAQELR[S5]IGD[S5]FNAYYA-NH2
modifications: staple 10-14
SMILES: CC[C@H](C)[C@H](NC(=O)[C@H](Cc1c[nH]c2ccccc12)NC(=O)[C@@H](NC(=O)[C@H](CCC(=O)O)NC(=O)CCCCCNC(=S)Nc1ccc2c(c1)C(=O)OC21c2ccc(O)cc2Oc2cc(O)ccc21)[C@@H](C)CC)C(=O)N[C@@H](C)C(=O)N[C@@H](CCC(N)=O)C(=O)N[C@@H](CCC(=O)O)C(=O)N[C@@H](CC(C)C)C(=O)N[C@@H](CCCNC(=N)N)C(=O)N[C@@]1(C)CCCC=CCCC[C@@](C)(C(=O)N[C@@H](Cc2ccccc2)C(=O)N[C@@H](CC(N)=O)C(=O)N[C@@H](C)C(=O)N[C@@H](Cc2ccc(O)cc2)C(=O)N[C@@H](Cc2ccc(O)cc2)C(=O)N[C@@H](C)C(N)=O)NC(=O)[C@H](CC(=O)O)NC(=O)CNC(=O)[C@H]([C@@H](C)CC)NC1=O
